Measurements published in patent US20200157217A1 (SYSTIMMUNE, published 2020).
Where a chain is given by its changes, count along the chain named. Read-outs that look alike come from different tables or passages of the source. Values belong to the binder of their own block, whether it stands above or below them.

Experiments:
Cyno T cell line = assay: FACS, B cell culture supernatant on the cynomolgus T cell line (HSC-F per paragraph 87)
[1] = target: T1, human CD3 Gamma/Epsilon Fc fusion protein (human, UniProt P09693 23-116; P07766 23-126); assay: Octet (bio-layer interferometry), bivalent kdis; antigen printed 'Epsilon-Gamma', taken as the human Gamma/Epsilon Fc that paragraph 95 names for FIG. 8
T1 construct: Construct limits and Fc are not described; also called Gamma-Epsilon Fc (KnH)
T1 sequence (P09693 23-116, chain 1 of 2): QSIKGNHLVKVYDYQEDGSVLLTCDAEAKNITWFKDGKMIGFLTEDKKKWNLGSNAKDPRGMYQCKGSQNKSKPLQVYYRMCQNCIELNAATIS
T1 sequence (P07766 23-126, chain 2 of 2): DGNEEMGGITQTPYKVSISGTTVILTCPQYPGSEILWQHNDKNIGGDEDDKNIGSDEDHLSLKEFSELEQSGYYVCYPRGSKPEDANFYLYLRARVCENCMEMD

[2] = target: T2, human CD3 Delta/Epsilon Fc fusion protein (human, UniProt P04234 22-105; P07766 23-126); assay: Octet (bio-layer interferometry), bivalent kdis
T2 construct: Construct limits and Fc are not described; also called Human CD3 Delta-Epsilon Fc ("Knobs-into-hole"-KnH)
T2 sequence (P04234 22-105, stated change not applied, chain 1 of 2): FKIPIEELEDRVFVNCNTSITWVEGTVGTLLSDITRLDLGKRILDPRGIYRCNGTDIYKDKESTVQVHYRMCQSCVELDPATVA
T2 sequence (P07766 23-126, stated change not applied, chain 2 of 2): as the sequence (P07766 23-126, chain 2 of 2) above

[3] = target: T3, human CD3 (Delta, Gamma, Epsilon) on the human T cell line Jurkat or on purified human CD3+ T cells (human, UniProt P07766 23-207; P09693 23-182; P04234 22-171); assay: FACS, antibody titration on Jurkat cells
T3 construct: whole, on cells; On cells CD3 sits in the TCR complex
T3 sequence (P07766 23-207, stated change not applied, chain 1 of 3): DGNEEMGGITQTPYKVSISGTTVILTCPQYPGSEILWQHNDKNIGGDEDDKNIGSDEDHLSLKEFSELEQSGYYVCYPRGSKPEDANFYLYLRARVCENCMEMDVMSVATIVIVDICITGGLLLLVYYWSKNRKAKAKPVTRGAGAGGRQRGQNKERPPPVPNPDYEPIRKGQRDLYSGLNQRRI
T3 sequence (P09693 23-182, stated change not applied, chain 2 of 3): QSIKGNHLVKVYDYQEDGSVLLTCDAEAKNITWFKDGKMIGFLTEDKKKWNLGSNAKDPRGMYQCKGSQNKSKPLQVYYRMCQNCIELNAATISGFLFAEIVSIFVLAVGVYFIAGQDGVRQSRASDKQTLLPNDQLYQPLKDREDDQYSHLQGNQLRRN
T3 sequence (P04234 22-171, stated change not applied, chain 3 of 3): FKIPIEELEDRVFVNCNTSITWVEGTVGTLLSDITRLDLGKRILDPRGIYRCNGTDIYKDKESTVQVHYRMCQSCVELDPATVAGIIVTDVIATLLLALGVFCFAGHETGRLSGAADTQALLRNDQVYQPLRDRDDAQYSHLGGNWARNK

[4] = target: T1, human CD3 Gamma/Epsilon Fc fusion …; assay: Octet (bio-layer interferometry), bivalent kdis; antigen printed 'Human δ/γ - Fc', taken as the Gamma/Epsilon Fc that paragraph 95 names for FIG. 8
[5] = target: T3, human CD3 (Delta, Gamma, Epsilon) on …; assay: FACS, antibody titration on Jurkat cells; remark: listed apart in the source

B1: 284A10 (antibody, V domains shown)
VH: QSLEESGGRLVTPGTPLTLTCTVSGFTISTNAMSWVRQVPGKGLEWIGVITGRDITYYASWAKGRFTISKTSSTTVDLKMTSLTAEDSATYFCARDGGSSAITSNNIWGPGTLVTVSS
VL: DVVMTQTPPSVSAAVGGTVTIKCQASESISSWLAWYQQKPGQPPKLLIYEASKLASGVPSRFSGSGSGTEFTLTISDLECADAATYYCQGYFYFISRTYVNSFGGGTEVEFK
- MFI (Cyno T cell line): 615 MFI

B2: 480A7 chimeric rabbit/human IgG antibody (antibody, V domains shown)
VH: B1 VH with F26I, T27D, I28L, T30S, V39A, N105K
VL: DVVMTQTPASVEAAVGGTVTINCQASESISSWLAWYQQRPGQPPKLLIYEASKLASGVPSRFSGSGSGTEFTLTISDLECADAATYYCQGYFYFISRSYVNAFGGGTEVVFKR
- koff [1]: 0.0006 s⁻¹
- koff [2]: 0.00066 s⁻¹
- binding result [3]: binds

B4: 299F6 chimeric rabbit/human IgG antibody (antibody, V domains shown)
VH: B1 VH with T30S, V39A, S60N
VL: B2 VL with A9S, E12S, R39K
- koff [2]: 0.00049 s⁻¹
- koff [4]: 0.00045 s⁻¹

B8: 299F6 1.1 (antibody, human IgG1, kappa, V domains shown)
VH: EVQLVESGGGLVQPGGSLRLSCAASGFTISSNAMSWVRQAPGKGLEWIGVITGRDITYYANWAKGRFTISRDNSKNTLYLQMNSLRAEDTAVYYCARDGGSSAITSNNIWGQGTLVTVSS
VL: DIQMTQSPSTLSASVGDRVTITCQASESISSWLAWYQQKPGKAPKLLIYEASKLASGVPSRFSGSGSGTEFTLTISSLQPDDFATYYCQGYFYFISRSYVNAFGGGTKVEIKR
notes: sheet: mAb '299F6 1.1', format 'humanized'; also called 299F6 humanized
- koff [2]: 0.0006 s⁻¹

B10: 284A10 1.1 (antibody, human IgG1, kappa, V domains shown)
VH: B8 VH with S31T, N61S
VL: B8 VL with I2V, Q3V, T22N, S98T, A102S
notes: sheet: mAb '284A10 1.1', format 'humanized'; also called 284A10 humanized
- koff [2]: 0.00053 s⁻¹

Further lines, results first:

- MFI (Cyno T cell line): 549 MFI
B3: 295E9 (antibody, V domains shown)
VH: B1 VH with F26I, T27D, I28L, T30S, V39A, T56N, N105K
VL: B1 VL with P9A, S12E, K22N, K39R, S63K, T98S, S102A, E110V, F111V

- koff [2]: 0.0052 s⁻¹
- koff [4]: 0.0052 s⁻¹
B5: 295E9 chimeric rabbit/human IgG antibody (antibody, V domains shown)
VH: B1 VH with F26I, T27D, I28L, T30S, V39A, T56N, N105K
VL: B2 VL with S63K, F111V

- binding result [5]: binds
- koff [2]: 0.00042 s⁻¹
- koff [4]: 0.00054 s⁻¹
B6: 480C8 chimeric rabbit/human IgG antibody (antibody, V domains shown)
VH: B1 VH with F26I, T27D, I28L, T30S, V39A, T103N, N105K, P110Q
VL: B2 VL with A9S, E12S, R39K, S98T, V110E
notes: also called 48008

- koff [2]: 0.0005 s⁻¹
- koff [4]: 0.0013 s⁻¹
B7: 284A10 chimeric rabbit/human IgG antibody (antibody, V domains shown)
VH: B1 VH
VL: B2 VL with A9P, E12S, N22K, R39K, S98T, A102S, V110E

- koff [2]: 0.0005 s⁻¹
B9: 480C8 1.1 (antibody, human IgG1, kappa, V domains shown)
VH: B8 VH with F27I, T28D, I29L, N61S, T105N, N107K
VL: B8 VL with S98T
notes: sheet: mAb '480C8 1.1', format 'humanized'; also called 480C8 humanized
